Results as given in US20240190989A1 (BEIGENE SWITZERLAND, published 2024).

Legend:
[1] = molecular target: T1, CEACAM8 transiently expressed on HEK293 cells (Homo sapiens (Human), UniProt P31997 35-320); experiment: flow cytometry on transiently transfected HEK293 cells [panel B]
T1 sequence: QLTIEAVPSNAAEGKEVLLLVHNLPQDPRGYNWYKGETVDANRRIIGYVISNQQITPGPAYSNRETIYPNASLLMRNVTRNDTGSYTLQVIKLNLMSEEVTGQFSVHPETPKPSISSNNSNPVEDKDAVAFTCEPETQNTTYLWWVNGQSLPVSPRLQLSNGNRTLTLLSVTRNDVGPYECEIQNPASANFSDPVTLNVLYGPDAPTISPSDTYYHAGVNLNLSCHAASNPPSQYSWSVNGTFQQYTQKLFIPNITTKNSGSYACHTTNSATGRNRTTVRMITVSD

[2] = molecular target: T2, CEACAM7 transiently expressed on HEK293 cells (Homo sapiens (Human), UniProt Q14002 36-242); experiment: as above
T2 sequence: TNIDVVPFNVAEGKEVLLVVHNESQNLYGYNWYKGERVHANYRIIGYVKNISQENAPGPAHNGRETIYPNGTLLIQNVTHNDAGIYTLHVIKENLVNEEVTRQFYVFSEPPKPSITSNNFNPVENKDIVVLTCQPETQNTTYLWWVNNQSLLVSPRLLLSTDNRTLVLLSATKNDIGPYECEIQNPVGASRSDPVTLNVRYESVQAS

[3] = molecular target: T3, full-length human CEA on cells (MKN45, LOVO, L929/huCEA, CT26/CEA, CT26-OS8-CEA) (human, UniProt P06731 35-685); experiment: flow cytometry on MKN45 cells, no soluble CEA
T3 construct: also called CEACAM5; native CEA
T3 sequence: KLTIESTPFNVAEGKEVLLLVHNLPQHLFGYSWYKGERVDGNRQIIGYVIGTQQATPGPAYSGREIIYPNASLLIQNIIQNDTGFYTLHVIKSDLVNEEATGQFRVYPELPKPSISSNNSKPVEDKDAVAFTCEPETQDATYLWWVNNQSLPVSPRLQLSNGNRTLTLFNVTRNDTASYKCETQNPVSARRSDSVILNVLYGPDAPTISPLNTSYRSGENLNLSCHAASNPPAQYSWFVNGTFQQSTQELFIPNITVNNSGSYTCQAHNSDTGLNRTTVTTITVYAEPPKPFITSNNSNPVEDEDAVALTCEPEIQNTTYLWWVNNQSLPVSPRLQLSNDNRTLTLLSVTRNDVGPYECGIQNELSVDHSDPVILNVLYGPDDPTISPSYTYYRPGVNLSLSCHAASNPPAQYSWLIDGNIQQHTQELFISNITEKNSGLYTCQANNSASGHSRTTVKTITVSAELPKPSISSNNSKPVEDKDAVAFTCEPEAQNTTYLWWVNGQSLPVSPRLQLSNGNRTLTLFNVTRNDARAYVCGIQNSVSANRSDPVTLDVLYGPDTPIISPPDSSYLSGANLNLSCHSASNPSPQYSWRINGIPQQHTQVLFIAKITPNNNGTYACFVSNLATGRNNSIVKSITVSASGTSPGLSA

[4] = molecular target: T4, human CEACAM6, amino acids 1-320 with C-terminal 6xHis tag (human, UniProt P40199 35-320); experiment: antigen ELISA, antigens coated at 10 µg/ml, anti-human Fc-HRP [panel A]
T4 sequence: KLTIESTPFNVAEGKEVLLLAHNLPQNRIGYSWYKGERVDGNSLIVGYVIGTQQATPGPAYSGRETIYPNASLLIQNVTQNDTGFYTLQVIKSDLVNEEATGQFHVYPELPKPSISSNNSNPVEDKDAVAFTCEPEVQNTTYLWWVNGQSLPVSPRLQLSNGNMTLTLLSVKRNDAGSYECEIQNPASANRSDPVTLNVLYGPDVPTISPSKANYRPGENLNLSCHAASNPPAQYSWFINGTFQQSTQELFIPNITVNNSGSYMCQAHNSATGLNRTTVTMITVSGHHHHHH

[5] = molecular target: T5, CEACAM1 (Cat. No. 10822-H08H, Sino Biological) (Homo sapiens (Human), UniProt P13688 35-428); experiment: as above
T5 construct: Bought protein
T5 sequence: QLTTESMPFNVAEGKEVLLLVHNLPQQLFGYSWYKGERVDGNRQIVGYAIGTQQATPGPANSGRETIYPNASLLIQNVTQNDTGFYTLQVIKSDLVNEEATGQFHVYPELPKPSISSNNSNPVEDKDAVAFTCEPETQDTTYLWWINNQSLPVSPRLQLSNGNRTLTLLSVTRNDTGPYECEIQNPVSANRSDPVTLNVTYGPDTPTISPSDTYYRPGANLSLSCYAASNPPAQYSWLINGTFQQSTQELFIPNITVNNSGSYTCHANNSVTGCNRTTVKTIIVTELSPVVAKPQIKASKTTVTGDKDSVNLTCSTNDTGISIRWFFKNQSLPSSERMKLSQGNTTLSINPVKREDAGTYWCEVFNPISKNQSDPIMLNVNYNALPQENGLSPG

[6] = molecular target: T6, CEACAM3 transiently expressed on HEK293 cells (Homo sapiens (Human), UniProt P40198 35-252); experiment: flow cytometry on transfected HEK293 cells
T6 sequence: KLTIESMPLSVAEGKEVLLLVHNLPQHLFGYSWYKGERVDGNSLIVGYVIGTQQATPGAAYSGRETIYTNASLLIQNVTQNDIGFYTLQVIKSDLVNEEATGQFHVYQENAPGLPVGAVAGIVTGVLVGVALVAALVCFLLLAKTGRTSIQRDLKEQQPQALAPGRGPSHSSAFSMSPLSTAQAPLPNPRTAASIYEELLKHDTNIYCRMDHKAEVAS

EC50 (read off the curve) [3]: ~0.8 µg/mL
binding result [4]: no binding (tested: not shown)
binding result [5]: no binding (tested: not shown)
binding result [6]: no binding (tested: 2 ug/ml)
B1: BGA113K (BGA113 with Y57K in the heavy chain) (antibody, human IgG1, V domains shown)
VH: QVQLVQSGAEVKKPGASVKVSCKASGYIFTSYYLHWVRQAPGQGLEWIGYINPQTGKTSYAQKFQGRVTMTRDTSTSTVYMELSSLRSEDTAVYYCAREYGNYNYPLDYWGQGTLVTVSS
VL: DIQMTQSPSSLSASVGDRVTITCRASENQYGYLAWYQQKPGKVPKLLIYNYKNLVEGVPSRFSGSGSGTDFTLTISSLQPEDVATYYCQHHLGTPYTFGQGTKVEIK
binding result [1]: no binding (tested: 2 µg/ml (not on the sheet))
binding result [2]: no binding (tested: 2 µg/ml (not on the sheet))
